Measured values as given in the supplement of paper PMC10567573.

B1: TRIM15 (parent)
chain: LSQMGAQSSGKILLCPLCQEEEQA

Variants of: B1
Assay: protein stability index of a GFP-peptide fusion (GPS, HEK-293T) (PSI 1-6); higher = more stable
Conditions: c terminus: a fixed tail appended
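Note: lentivirally expressed fusions sorted by FACS into six bins by GFP to DsRed ratio, PSI derived from sequencing read proportions per bin multiplied by bin number.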

Row | Variant | protein stability index
1 | LSQMGAQSSGKQLLCPLCQEEEQA | 4.27
2 | LSQMGAQSSGKELLCPLCQEEEQA | 3.56
3 | LSQMGAQSSGKTLLCPLCQEEEQA | 3.42
4 | LSQMGAQSSGKHLLCPLCQEEEQA | 3.51
5 | LSQMGAQSSGKMLLCPLCQEEEQA | 3.79
6 | LSQMGAQSSGKDLLCPLCQEEEQA | 4.21
7 | LSQMGAQSSGKYLLCPLCQEEEQA | 3.61
8 | LSQMGAQSSGKVLLCPLCQEEEQA | 4.5
9 | LSQMGAQSSGKGLLCPLCQEEEQA | 4.59
10 | LSQMGAQSSGKLLLCPLCQEEEQA | 4.04
11 | LSQMGAQSSGKALLCPLCQEEEQA | 4.19
12 | LSQMGAQSSGKSLLCPLCQEEEQA | 4.57
13 | LSQMGAQSSGKNLLCPLCQEEEQA | 3.09
14 | LSQMGAQSSGKFLLCPLCQEEEQA | 3.52
15 | LSQMGAQSSGKKLLCPLCQEEEQA | 4.04
16 | LSQMGAQSSGKILLCPLEQEEEQA | 5.13
17 | LSQMGAQSSGKILLCPLFQEEEQA | 3.81
18 | LSQMGAQSSGKILLCPLKQEEEQA | 4.27
19 | LSQMGAQSSGKILLCPLDQEEEQA | 5.2
20 | LSQMGAQSSGKILLCPLPQEEEQA | 3.47
21 | LSQMGAQSSGKILLCPLAQEEEQA | 5.26
22 | LSQMGAQSSGKILLCPLHQEEEQA | 4.7
23 | LSQMGAQSSGKILLCPLNQEEEQA | 4.38
24 | LSQMGAQSSGKILLCPLMQEEEQA | 4.61

Row | Variant | protein stability index
25 | LSQMGAQSSGKILLCPLLQEEEQA | 4.82
26 | LSQMGAQSSGKILLCPLIQEEEQA | 3.49
27 | LSQMGAQKSGKILLCPLCQEEEQA | 3.4
28 | LSQMGAQESGKILLCPLCQEEEQA | 3.82
29 | LSQMGAQGSGKILLCPLCQEEEQA | 3.93
30 | LSQMGAQDSGKILLCPLCQEEEQA | 3.98
31 | LSQMGAQNSGKILLCPLCQEEEQA | 3.82
32 | LSQMGAQRSGKILLCPLCQEEEQA | 3.89
33 | LSQMGAQYSGKILLCPLCQEEEQA | 3.49
34 | LSQMGAQTSGKILLCPLCQEEEQA | 3.55
35 | LSQMGAQFSGKILLCPLCQEEEQA | 2.76
36 | LSQMGAQPSGKILLCPLCQEEEQA | 3.73
37 | LSQMGAQWSGKILLCPLCQEEEQA | 2.65
38 | LSQMGAQCSGKILLCPLCQEEEQA | 2.89
39 | LSQMGAQISGKILLCPLCQEEEQA | 3.14
40 | LSQMGAQVSGKILLCPLCQEEEQA | 3.51
41 | LSQMGAQHSGKILLCPLCQEEEQA | 3.82
42 | LSQMGAQQSGKILLCPLCQEEEQA | 3.27
43 | LSQMGAQASGKILLCPLCQEEEQA | 4.01
44 | LSQMGAQSSGKILDCPLCQEEEQA | 4.72
45 | LSQMGAQSSGKILHCPLCQEEEQA | 3.36
46 | LSQMGAQSSGKILFCPLCQEEEQA | 3.59
47 | LSQMGAQSSGKILTCPLCQEEEQA | 4.66
48 | LSQMGAQSSGKILNCPLCQEEEQA | 3.56

Row | Variant | protein stability index
49 | LSQMGAQSSGKILMCPLCQEEEQA | 3.98
50 | LSQMGAQSSGKILVCPLCQEEEQA | 2.99
51 | LSQMGAQSSGKILICPLCQEEEQA | 3.91
52 | LSQMGAQSSGKILYCPLCQEEEQA | 4.23
53 | LSQMGAQSSGKILCCPLCQEEEQA | 3.94
54 | LSQMGAQSSGKILSCPLCQEEEQA | 4.72
55 | LSQMGAQSSGKILWCPLCQEEEQA | 2.93
56 | LSQMGAQSSGKILQCPLCQEEEQA | 4.52
57 | LSQMGAQSSGKILACPLCQEEEQA | 5.21
58 | LSQMGAQSSGKILRCPLCQEEEQA | 4.15
59 | LSQMGAQSSGKILLCPMCQEEEQA | 3.19
60 | LSQMGAQSSGKILLCPSCQEEEQA | 4.24
61 | LSQMGAQSSGKILLCPQCQEEEQA | 4.19
62 | LSQMGAQSSGKILLCPACQEEEQA | 3.63
63 | LSQMGAQSSGKILLCPCCQEEEQA | 3.76
64 | LSQMGAQSSGKILLCPNCQEEEQA | 4.43
65 | LSQMGAQSSGKILLCPPCQEEEQA | 5.04
66 | LSQMGAQSSGKILLCPWCQEEEQA | 3.57
67 | LSQMGAQSSGKILLCPFCQEEEQA | 3.23
68 | LSQMGAQSSGKILLCPYCQEEEQA | 3.34
69 | LSQMGAQSSGKILLCPGCQEEEQA | 4.13
70 | LSQMGAQSSGKILLCPHCQEEEQA | 3.79
71 | LSQMGAQSSGKILLCPKCQEEEQA | 3.6
72 | LSQMGAQSSGKILLCPTCQEEEQA | 4.3

Row | Variant | protein stability index
73 | LSQMGAQSSGKILLCPRCQEEEQA | 4.31
74 | LSQMGAQSSGKILLCPVCQEEEQA | 3.79
75 | LSQMGAQSSGKILLCPDCQEEEQA | 4.97
76 | LSQMGAQSSGPILLCPLCQEEEQA | 3.6
77 | LSQMGAQSSGHILLCPLCQEEEQA | 2.72
78 | LSQMGAQSSGEILLCPLCQEEEQA | 3.11
79 | LSQMGAQSSGDILLCPLCQEEEQA | 2.81
80 | LSQMGAQSSGVILLCPLCQEEEQA | 2.04
81 | LSQMGAQSSGYILLCPLCQEEEQA | 2.64
82 | LSQMGAQSSGFILLCPLCQEEEQA | 2.44
83 | LSQMGAQSSGRILLCPLCQEEEQA | 3.03
84 | LSQMGAQSSGAILLCPLCQEEEQA | 3.14
85 | LSQMGAQSSGQILLCPLCQEEEQA | 3.9
86 | LSQMGAQSSGGILLCPLCQEEEQA | 2.27
87 | LSQMGAQSSGNILLCPLCQEEEQA | 4.26
88 | LSQMGAQSSGCILLCPLCQEEEQA | 2.79
89 | LSQMGAQSSGSILLCPLCQEEEQA | 3.79
90 | LSQMGAQSSGIILLCPLCQEEEQA | 3.03
91 | LSQMGAQSSGMILLCPLCQEEEQA | 3.12
92 | LSQMGAQSSGLILLCPLCQEEEQA | 1.76
93 | LSQMGAQSSGWILLCPLCQEEEQA | 2.76
94 | LSQMGAQSSGTILLCPLCQEEEQA | 3
